Legend:
[1] = molecular target: T1, PKA (catalytic subunit from bovine heart) (Bos taurus, UniProt P00517); assay: In vitro kinase assay, phosphorylation of BAD and BAD mutants by PKA; format: biochemical; conditions: for in vitro phosphorylation by PKA: purified GST-tagged polypeptides, gamma-32P-ATP, autoradiography
T1 construct: 11 units PKA (catalytic subunit from bovine heart, Calbiochem); purchased Calbiochem; host or cells: bovine heart
Method: The ability of full-length BAD and mutant BAD S155A to bind Bcl-XL was also determined (FIG. 3(c)). Full-length BAD (“WT”) and mutant BAD S155A (“S155A”) were produced by in vitro translation and labeled with ^35S-methionine therein. The labeled proteins were then incubated with PKA (“+”) in the presence of unlabeled ATP or a buffer control (“−”). Following the kinase reactions, aliquots of each sample of the four samples were incubated with either GST or GST-Bcl-XL. The protein complex were captured on glutathione-agarose beads. Proteins bound to the beads (“Bound”) (lower panel) and samples of the reactions collected prior to incubation with the beads (“Total”) (upper panel) were analyzed by SDS-PAGE followed by autoradiography.
The GST-tagged BAD and BAD mutants were then expressed individually in cells and the purified GST-tagged polypeptides incubated with purified PKA, in the presence of ^32P radiolabel. A western blot, probed with anti-BAD antibody, was performed on the incubated GST-tagged BAD and BAD mutants to determine whether PKA could phosphorylate the BAD and/or mutant BAD in vitro. The GST-tagged BAD and BAD mutants phosphorylated by PKA could be detected directly by autoradiography due to the incorporation of ^32P radiolabel when the polypeptides were phosphorylated (FIG. 4, upper panel), whereas the total amount of BAD and mutant BAD present in the in vitro reaction was detected by the anti-BAD antibody probe (FIG. 4, lower panel).
In vitro kinase assays were carried out in 30 μl volumes containing 10 mM HEPES buffer, pH 7.5, 100 mM NaCl, 12 mM MgCl2, 1 mM dithiothreitol, […] γ^32P-ATP ([…], NEN), 11 units PKA (catalytic subunit from bovine heart, Calbiochem), and 1 μg purified GST-BAD. Reactions were incubated for 30 min at 30° C. and terminated by the addition of SDS-PAGE sample buffer. Samples were run on a 4–20% SDS-PAGE gel (Novex), transferred to a nitrocellulose membrane and phosphorylated GST-BAD was visualized by autoradiography. To verify that equal amounts of GST-BAD substrates were used, the nitrocellulose was subjected to western blot analysis with 133 ng/ml anti-BAD antibody (C-20).

[2] = system: BAD Ser155 phosphorylation in HeLa cells; assay: BAD phosphorylation in HeLa cells (western blot band-shift / anti-phospho-Ser155 antibody); format: cell-based, human
Method: A mammalian expression vector encoding mutant HA-BAD S155A, derived from the shorter murine BAD of SEQ ID NO:3, was constructed. HA-BAD S155A has an amino acid sequence wherein the serine at a position corresponding to Ser155 is substituted with alanine. A western blot was performed on WCL prepared from cells expressing the shorter murine BAD (SEQ ID NO:3), HA-BAD S112A, HA-BAD S136A, or HA-BAD S155A, and probed with anti-HA antibody.
A western blot analysis, probed with anti-HA antibody, was performed on lysates produced from the Forskolin treated and untreated (control) cells to determine whether Forskolin could induce the phosphorylation BAD or mutant BAD.
HeLa cells transiently expressing HA-BAD, HA-BAD S155A, HA-BAD S112A/S136A, or HA-BAD S112A/S136A/S155A were treated with Forskolin or a buffer control.
The HA-BAD S112A/S136A double mutant was transiently expressed in HeLa cells, and transfected cell cultures were treated with each of the GPCR ligands, individually and as a group. A western blot analysis, probed with anti-HA antibody, was performed on lysates produced from the treated and untreated (negative control) cells. […] Forskolin (FK) and no treatment (−) were positive and negative controls, respectively (FIG. 6(a), […], respectively).
Non-transfected HeLa cells were treated with Forskolin or L-epinephrine, followed by western blot analysis of cell lysates using anti-BAD antibodies.
Transformants were treated with L-epinephrine, then lysed and subjected to anti-HA western blot analysis.
To further test whether phosphorylation of Ser155 is dependent on the PI 3-kinase/Akt pathway, HeLa cells were transfected with the mutant HA-BAD S155A and pretreated with Wortmannin, an inhibitor of PI 3-kinase. These cells were then stimulated with epidermal growth factor (EGF), lysed and analyzed by western blot analysis.
For immunoprecipitation of all HA-BAD species, 1 μg of the anti-HA antibody was added to the cell lysates, and incubated at 4° C. for one hour. Protein G agarose (Pierce) was then added (50 μl/fraction of 50% slurry) and followed by a one hour incubation at 4° C. Beads were washed with RIPA buffer, boiled in loading buffer (2% SDS, 10% glycerol, 5% β-ME, 60 mM Tris, pH 6.8, 0.002% Bromophenol Blue) and loaded onto polyacrylamide gels. After electrophoresis, proteins were transferred to nitrocellulose membranes, and blots blocked in western wash buffer (40 mM Tris, pH 8.0, 150 mM NaCl, 0.2% NP-40) with 5% BSA for one hour at room temperature. Blots were incubated with primary antibody diluted in western wash buffer with 3% BSA at room temperature for 1–2 hours, washed with western wash buffer and incubated with secondary HRP-coupled antibody diluted in western wash buffer with 1.5% BSA, and washed extensively. Polypeptides were detected with the ECL chemiluminescence according to the manufacturers instructions (Amersham).

B1: BAD S155A: mutant of shorter murine BAD, serine corresponding to Ser155 substituted with alanine; HA- or GST-tagged (protein)
chain: MFQIPEFEPSEQEDASATDRGLGPSLTEDQPGPYLAPGLLGSNIHQQGRAATNSHHGGAGAMETRSRHSSYPAGTEEDEGMEEELSPFRGRSRSAPPNLWAAQRYGRELRRMADEFEGSFKGLPRPKSAGTATQMRQSAGWTRIIQSWWDRNLGKGGSTPSQ
modifications: left off: small tags and cut ends
notes: mutant of shorter murine BAD, serine corresponding to Ser155 substituted with alanine; HA- or GST-tagged
reduction of PKA catalyzed 32P-ATP incorporation ([1]; compared to the wild-type mammalian BAD substrate): more than 90% | in vitro phosphorylation by PKA [1]: low, but detectable level | in vitro phosphorylation by PKA ([1]; listed as GST-BAD S155A): dramatically reduced the phosphorylation | band-shift (phosphorylation) of expressed BAD construct in response to L-epinephrine ([2]; HeLa cells): significantly reduced | reactivity with anti-phospho-Ser155 specific BAD antibody ([2]; HeLa cells treated with Forskolin): failure of the anti-phospho-Ser155 specific BAD antibody to react | growth factor (EGF)- and serum (FCS)-induced phosphorylation of expressed BAD mutant ([2]; HeLa cells, anti-HA western blot): dramatically reduced | phosphorylation of expressed BAD mutant ([2]; HeLa cells, anti-HA western blot, compared to single mutation of Ser112 or Ser136): dramatically reduced the phosphorylation of the murine BAD in HeLa cells | band-shift (phosphorylation) of expressed BAD construct in response to L-epinephrine ([2]; HeLa cells, listed as HA-BAD S155A): limited response

From patent publication US7193044B1, “Compounds and methods for regulating apoptosis, and methods of making and screening for compounds that regulate apoptosis” (Immunogen, Inc., priority 2000, dated 2007)
